Patent US20210388102A1 (IMMUNOGEN, published 2021)
Substitutions are numbered along the chain they refer to. In names and notes the source's numbering stands.

T1: cynomolgus monkey ADAM9 (cynoADAM9) on cells (cynomolgus monkey, UniProt Q13443 206-819 (human entry))
T1 construct: also called Cho-K/cynoADAM9 clone 2; Cho-K/cynoADAM9 clone #16
T1 chain: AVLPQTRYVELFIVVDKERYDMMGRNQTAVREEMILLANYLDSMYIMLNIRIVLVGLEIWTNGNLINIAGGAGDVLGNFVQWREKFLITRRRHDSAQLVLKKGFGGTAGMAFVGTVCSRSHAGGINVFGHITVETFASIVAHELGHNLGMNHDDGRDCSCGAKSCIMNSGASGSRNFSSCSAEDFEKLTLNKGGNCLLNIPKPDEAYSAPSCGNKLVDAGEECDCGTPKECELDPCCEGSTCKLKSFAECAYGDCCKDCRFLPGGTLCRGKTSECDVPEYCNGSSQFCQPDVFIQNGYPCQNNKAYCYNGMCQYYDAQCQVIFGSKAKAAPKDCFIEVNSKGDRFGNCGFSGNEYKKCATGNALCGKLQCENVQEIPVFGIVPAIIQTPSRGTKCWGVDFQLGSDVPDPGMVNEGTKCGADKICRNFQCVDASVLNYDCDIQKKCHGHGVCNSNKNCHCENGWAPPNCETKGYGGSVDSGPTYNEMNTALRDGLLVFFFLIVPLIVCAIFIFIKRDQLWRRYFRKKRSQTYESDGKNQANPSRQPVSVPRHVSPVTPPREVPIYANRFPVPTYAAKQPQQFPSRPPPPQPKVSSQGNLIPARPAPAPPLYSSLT

T2: human ADAM9 (huADAM9) on cells (human, UniProt Q13443 206-819)
T2 construct: The pro-domain is said to be cleaved (Arg-205/Ala-206) in the mature protein; also called Cho-K/huADAM9; Cho-K/hu ADAM9.2
T2 sequence: T1 chain with A69V, H130Q, D421G, I441V, R521S, V546G, P569A

T3: His-tagged soluble human ADAM9 (shADAM9-His) (human, UniProt Q13443 206-697)
T3 construct: Contains an extracellular portion of human ADAM9; also called huADAM9-His; His peptide-tagged soluble huADAM9
T3 sequence: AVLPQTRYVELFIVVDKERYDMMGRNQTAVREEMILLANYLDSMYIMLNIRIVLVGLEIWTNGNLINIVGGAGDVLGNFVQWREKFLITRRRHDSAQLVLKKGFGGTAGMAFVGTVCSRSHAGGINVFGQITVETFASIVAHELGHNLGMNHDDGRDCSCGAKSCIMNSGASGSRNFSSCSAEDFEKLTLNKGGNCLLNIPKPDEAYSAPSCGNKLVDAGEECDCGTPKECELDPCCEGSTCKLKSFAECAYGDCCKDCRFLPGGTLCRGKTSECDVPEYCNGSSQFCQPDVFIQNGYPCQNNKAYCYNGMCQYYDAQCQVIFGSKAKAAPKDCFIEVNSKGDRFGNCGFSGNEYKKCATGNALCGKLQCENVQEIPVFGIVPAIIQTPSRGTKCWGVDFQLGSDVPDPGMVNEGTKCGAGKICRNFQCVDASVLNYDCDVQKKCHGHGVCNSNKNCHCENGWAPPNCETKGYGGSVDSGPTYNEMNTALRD

B1: hMAB-A (2C.2) (antibody, human IgG1, kappa, V domains shown)
VH: EVQLVESGGGLVKPGGSLRLSCAASGFTFSSYWMHWVRQAPGKGLEWVGEIIPIFGHTNYNEKFKSRFTISLDNSKNTLYLQMGSLRAEDTAVYYCARGGYYYYPRFGWLDYWGQGTTVTVSS
VL: DIVMTQSPDSLAVSLGERATISCKASQSVDYSGDSYMNWYQQKPGQPPKLLIYAASDLESGIPARFSGSGSGTDFTLTISSLEPEDFATYYCQQSHEDPFTFGQGTKLEIKR
notes: IgG1 kappa; also called MAB-A VH(2C); MAB-A VH(2C.2)
B2: hMAB-A(2.2)-DGN549 (antibody, human IgG1, kappa, V domains shown)
VH: B1 VH with P105G, R106S, F107R, G108D, W109Y, L110F
VL: B1 VL
modifications: lysine-linked DGN549, sites not given; DGN549-L (compound D2) linked to lysine residues of the antibody, sites not given; average 2.7 mol DGN549/mol antibody
B3: hMAB-A(2.2)-sSPDB-DM4 (antibody, human IgG1, kappa, V domains shown)
VH: B1 VH with P105G, R106S, F107R, G108D, W109Y, L110F
VL: B1 VL
modifications: lysine-linked DM4, sites not given; DM4 linked through sulfo-SPDB to lysine residues of the antibody, sites not given; average 3.2 mol DM4/mol antibody
notes: also called huMAB-A(2.2)-sSPDB-DM4
B4: hMAB-A(2I.2)-S442C-DGN549 (antibody)
heavy: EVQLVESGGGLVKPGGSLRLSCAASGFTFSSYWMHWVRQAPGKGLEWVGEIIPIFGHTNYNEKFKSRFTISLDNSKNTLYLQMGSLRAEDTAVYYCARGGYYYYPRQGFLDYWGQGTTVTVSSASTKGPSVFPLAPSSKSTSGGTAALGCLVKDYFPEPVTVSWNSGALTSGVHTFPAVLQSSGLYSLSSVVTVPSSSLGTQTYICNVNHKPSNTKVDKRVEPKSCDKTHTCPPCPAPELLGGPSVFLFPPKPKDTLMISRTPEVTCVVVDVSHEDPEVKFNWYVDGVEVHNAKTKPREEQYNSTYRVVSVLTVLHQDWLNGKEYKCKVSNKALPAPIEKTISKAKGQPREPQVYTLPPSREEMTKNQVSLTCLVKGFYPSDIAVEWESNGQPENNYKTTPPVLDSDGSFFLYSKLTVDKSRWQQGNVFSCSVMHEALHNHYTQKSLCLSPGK
light: DIVMTQSPDSLAVSLGERATISCKASQSVDYSGDSYMNWYQQKPGQPPKLLIYAASDLESGIPARFSGSGSGTDFTLTISSLEPEDFATYYCQQSHEDPFTFGQGTKLEIKRTVAAPSVFIFPPSDEQLKSGTASVVCLLNNFYPREAKVQWKVDNALQSGNSQESVTEQDSKDSTYSLSSTLTLSKADYEKHKVYACEVTHQGLSSPVTKSFNRGEC
modifications: DGN549-C (compound D5) on the engineered Cys S442C (EU index; 6th to the last residue of SEQ ID NO 142 when X is lysine); average 1.9 mol DGN549/mol antibody
notes: also called huMAB-A(2I.2)-S442C-DGN549
B5: hMAB-A(2I.2)-sSPDB-DM4 (antibody, human IgG1, kappa)
heavy: not shown
light: B4 light
modifications: lysine-linked DM4, sites not given; DM4 linked through sulfo-SPDB to lysine residues of the antibody, sites not given; average 3.5 mol DM4/mol antibody
B6: hMAB-A (1.1) (antibody, V domains shown)
VH: B1 VH with F55N, P105G, R106S, F107R, G108D, W109Y, L110F
VL: DIVMTQSPDSLAVSLGERATISCKASQSVDYDGDSYMNWYQQKPGQPPKLLIYAASDLESGIPARFSGSGSGTDFTLTISSLEPEDFATYYCQQSHEDPFTFGQGTKLEIK
notes: also called hMAB-A VH(1)/hMAB-A VL(1)
B7: hMAB-A (3.3) (antibody, V domains shown)
VH: B1 VH with K63R, K65Q, S66G, P105G, R106S, F107R, G108D, W109Y, L110F
VL: B6 VL with K24R, D32S
notes: also called hMAB-A VH(3)/hMAB-A VL(3)

Target: T1, cynomolgus monkey ADAM9 (cynoADAM9) on …
Experiment: FACS, EC50 on 300-19 cynoADAM9 cells over EC50 on 300-19 huADAM9 cells
Protocol: (§1) To evaluate the consequence of conjugation on antigen binding, the relative binding affinity of each anti-ADAM9 immunoconjugate and its respective unconjugated antibody to ADAM9 was determined by FACS analysis on 300-19 cells ectopically-expressing either human ADAM9 or cynomolgus ADAM9. Briefly, the ADAM9-expressing 300-19 cells were incubated with dilution series of anti-ADAM9 antibodies or immunoconjugates for 30 min @ 4° C. in FACS buffer (PBS, 0.1% BSA, 0.01% NaN₃), Samples were then washed and incubated with fluorescently-labeled secondary antibody for 30 minutes at 4° C. The normalized mean of fluorescence intensity at each concentration was plotted and the EC50 of binding was calculated using a nonlinear regression analysis (GraphPad Prims 4.0).

Binder | cyno/human (ratio of EC50)
B1 | 3
B2 | 14
B3 | 12
B4 | 2
B5 | 3

target: T2, human ADAM9 (huADAM9) on cells; experiment: FACS, 300-19 cells expressing human ADAM9
Protocol: as §1

Binder | EC50
B1 | 1.22 nM
B2 | 1.55 nM
B3 | 1.11 nM
B4 | 2.49 nM
B5 | 1.55 nM

Target: T1, cynomolgus monkey ADAM9 (cynoADAM9) on …
Experiment: FACS, 300-19 cells expressing cynomolgus ADAM9
Protocol: as §1

Binder | EC50
B1 | 3.8 nM
B2 | 22.3 nM
B3 | 13.3 nM
B4 | 6.2 nM
B5 | 4.9 nM

target: T2, human ADAM9 (huADAM9) on cells; experiment: cell-based or functional assay

Binder | Fold-specificity (IC50 control ADC/IC50 anti-ADAM9 ADC), A498 | Fold-specificity (IC50 control ADC/IC50 anti-ADAM9 ADC), DLD-1 | Fold-specificity (IC50 control ADC/IC50 anti-ADAM9 ADC), DU145 | Fold-specificity (IC50 control ADC/IC50 anti-ADAM9 ADC), HPAF2 | Fold-specificity (IC50 control ADC/IC50 anti-ADAM9 ADC), HS578T | Fold-specificity (IC50 control ADC/IC50 anti-ADAM9 ADC), IGROV1 | Fold-specificity (IC50 control ADC/IC50 anti-ADAM9 ADC), KATO III | Fold-specificity (IC50 control ADC/IC50 anti-ADAM9 ADC), NCI-H1703 | In Vitro Cytotoxicity (IC50 nM), A498 | In Vitro Cytotoxicity (IC50 nM), DLD-1
B2 | > 1000 fold | > 1000 fold | > 1000 fold | > 1000 fold | > 1000 fold | > 1000 fold | > 1000 fold | > 1000 fold | 0.001 nM | 0.01 nM
B3 | 27 fold | 9 fold | 25 fold | 9 fold | 16 fold | 3 fold | 5 fold | 152 fold | 0.119 nM | 2.73 nM
B4 | > 1000 fold | > 1000 fold | > 1000 fold | > 1000 fold | 646 fold | > 1000 fold | > 1000 fold | > 1000 fold | 0.004 nM | 0.045 nM
B5 | 30 fold | 63 fold | 32 fold | 13 fold | 20 fold | 8 fold | 11 fold | 132 fold | 0.108 nM | 0.386 nM

same assay, conditions: not given

Binder | In Vitro Cytotoxicity (IC50 nM), DU145 | In Vitro Cytotoxicity (IC50 nM), HPAF2 | In Vitro Cytotoxicity (IC50 nM), HS578T | In Vitro Cytotoxicity (IC50 nM), IGROV1 | In Vitro Cytotoxicity (IC50 nM), KATO III | In Vitro Cytotoxicity (IC50 nM), NCI-H1703
B2 | 0.002 nM | 0.043 nM | 0.009 nM | 0.001 nM | 0.031 nM | 0.002 nM
B3 | 0.57 nM | 0.622 nM | 0.119 nM | 4.08 nM | 1.15 nM | 0.024 nM
B4 | 0.004 nM | 0.115 nM | 0.017 nM | 0.003 nM | 0.065 nM | 0.004 nM
B5 | 0.439 nM | 0.422 nM | 0.094 nM | 1.41 nM | 0.48 nM | 0.028 nM

target: T3, His-tagged soluble human ADAM9 …; experiment: SPR (BIACORE), antibody captured, huADAM9-His in flow
Protocol: (§2) The kinetics of binding were determined via BIACORE® analysis binding (normalized 1:1 Langmuir binding model).

Binder | Kd | koff | kon
B1 | 1.4 nM | 0.00081 s⁻¹ | 590000 M⁻¹ s⁻¹

target: T3, His-tagged soluble human ADAM9 …; experiment: SPR (BIACORE), antibody captured on anti-human Fc, shADAM9-His 6.25-100 nM, 1:1 Langmuir
Protocol: as §2

Binder | Kd
B6 | 3.5 nM
B7 | 1.4 nM
